Results: publication PMC4888466

What was measured:
Assay in all cases: purified protein
Assay type in all cases: biochemical, Caenorhabditis elegans
[1] = system: Nc1nc2c(ncn2[C@@H]2O[C@H](COP(=O)(O)OP(=O)(O)OP(=O)(O)O)[C@@H](O)[C@H]2O)c(=O)[nH]1; settings: 1 mM Man-1-P, 5 mM MgCl2, pH 7.5, 25°C
[2] = system: O=P(O)(O)O[C@H]1O[C@H](CO)[C@@H](O)[C@H](O)[C@H]1O; settings: 1 mM GTP, 5 mM MgCl2, pH 7.5, 25°C
[3] = system: O=P(O)(O)O[C@H]1O[C@H](CO)[C@@H](O)[C@H](O)[C@@H]1O; settings: 1 mM GTP, 5 mM MgCl2, pH 7.5, 25°C

GMP-1 (Caenorhabditis elegans)
Km [1]: 16.04 ± 1.68 µM
kcat [1]: 29.1 ± 0.58 s⁻¹
kcat/Km [1]: 1.81e+06 ± 190000 M⁻¹ s⁻¹
Km [2]: 508.90 ± 118.40 µM
kcat [2]: 33.1 ± 2.9 s⁻¹
kcat/Km [2]: 65000 ± 16000 M⁻¹ s⁻¹
Km [3]: 18.49 ± 2.14 µM
kcat [3]: 30.3 ± 0.69 s⁻¹
kcat/Km [3]: 1.64e+06 ± 190000 M⁻¹ s⁻¹
